Experiments:
[1] = molecular target: Dihydrodipicolinate synthase from Bacillus anthracis (Bacillus anthracis); assay: AUC
[2] = molecular target: Dihydrodipicolinate synthase from Bacillus anthracis (Bacillus anthracis); assay: SAXS
[3] = molecular target: Dihydrodipicolinate synthase from Vitis vinifera (Vitis vinifera); assay: crystal structure; Vv-DHDPS in complex with pyruvate, 2.2 Å, space group P1, eight monomers (two tetramers) in the asymmetric unit
[4] = molecular target: Dihydrodipicolinate synthase from Vitis vinifera (Vitis vinifera); assay: SAXS
[5] = molecular target: Dihydrodipicolinate synthase from Vitis vinifera (Vitis vinifera); assay: AUC; sedimentation velocity, 13 µM initial protein, 40,000 rpm, 30°C, absorbance at 280 nm, 2DSA Monte Carlo analysis; without and with saturating (5 mM) pyruvate

| stoichiometry N [3] | stoichiometry N [4] | stoichiometry N [5] | Substance | stoichiometry N [1] | stoichiometry N [2] |
| --- | --- | --- | --- | --- | --- |
|  |  |  | Dihydrodipicolinate synthase from Bacillus anthracis (enzyme) | 4 | 4 |
| 4 | 4 | 4 | Dihydrodipicolinate synthase from Vitis vinifera (enzyme) |  |  |
